Assay results from PMC11717359, “A new pipeline SPICE identifies novel JUN-IKZF1 composite elements”.

Target: IKZF1 (Ikaros), recombinant (Homo sapiens, UniProt Q13422 1-519)
Experiment: EMSA; 1 ug IKZF1 alone; EMSA per LI-COR kit protocol (829-07910), 100 nM IR700 probe, 4-12% TBE gel in 0.5x TBE; binding buffer, pH and temperature not stated
Conditions: protein: commercial; chain copies: 2; label: IRDye 700

Chain of IKZF1 (Ikaros), recombinant (Q13422 whole entry): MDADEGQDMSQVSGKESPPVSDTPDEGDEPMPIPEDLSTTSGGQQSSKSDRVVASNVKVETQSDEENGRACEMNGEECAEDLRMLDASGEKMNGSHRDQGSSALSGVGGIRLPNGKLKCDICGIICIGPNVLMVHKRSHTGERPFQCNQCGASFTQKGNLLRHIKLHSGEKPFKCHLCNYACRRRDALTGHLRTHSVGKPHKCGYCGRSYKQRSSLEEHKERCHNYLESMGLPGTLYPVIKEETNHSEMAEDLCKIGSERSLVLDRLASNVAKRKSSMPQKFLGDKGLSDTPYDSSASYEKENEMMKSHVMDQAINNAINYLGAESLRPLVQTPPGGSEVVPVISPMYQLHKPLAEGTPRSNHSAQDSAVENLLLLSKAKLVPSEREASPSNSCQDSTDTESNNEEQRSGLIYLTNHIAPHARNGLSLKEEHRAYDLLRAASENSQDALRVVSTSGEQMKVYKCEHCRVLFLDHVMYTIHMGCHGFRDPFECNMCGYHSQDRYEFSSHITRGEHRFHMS

B1: IL10 CNS9 WT probe (dsDNA)
DNA 1: GAGGTTGCAGTTTCGTTGTGAGTCAGGCCTGCTGA
DNA 2: TCAGCAGGCCTGACTCACAACGAAACTGCAACCTC
Q: Does B1 bind?
A: no binding
